The values below come from a protein production outcome set (Wang et al. 2014).
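Note: failed if final PepcDB status was selected cloned or expressed and not failed if soluble or beyond.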

The nature of the data set: label from the status in PepcDB records.
As for “MELVFDKDGLSAYLEEVFPQIQGEFSIDALAKGEITMRLNVQERHLRPGGTVSGPSMFALADVSVYALVLAHLGREALAVTTNASLDFMRKPESGRDLLGQARLLKLGRTLAVGDILLFSEGMEAPVARSTMTYSIPPKR”, the protein production entry is “not failed”.

In the case of “MRIVAPVMPRHFDEAQAIDISKYEDVNLIEWRADFLPKDEIVAVAPAIFEKFAGKEIIFTLRTVQEGGNITLSSQEYVDIIKEINAIYNPDYIDFEYFTHKSVFQEMLDFPNLILSYHNFEETPENLMEAFSEMTKLAPRVVKIAVMPQSEQDVLDLMNYTRGFKTLNPEQEFATISMGKLGRLSRFAGDVIGSSWTYVSLDHVSGPGQVTLNDMKRIIEVLEMDISN”, the protein production entry is listed as “not failed”.

Consider “MDDVGRYQCLAVNEMGTVKKVVTVVLQSAPVFQVEPRDVTVRSGVDVELRCRATGEPVPTIEWLRAGRPLQAGRKLRALPDGSLWLEHVEAGDAGVYECVAHNRLGSVTAKALLAVRGEPRGSRGSMTGVINGQEFGMATLNISVLQQGSSEAPTIWSSISHVPASVGPLMRVLVVTIAPIYWALARESGEALNGYSLTGGSFQQESQMEFSTGELLTMTQVARGLDPDGLLLVDMKINGMIPESLADGDLRVQDFQEHYVQTGPGQLFAGSTQRFLHDSLPASLRCNHSIQYDETRGLQPQLVQHLRASSISSAFDPEAEALNFQLTTALQTEENEVGCPEGFEPDVQGAFCVDKDECSGGPSPCSHTCRNAPGHFSCSCPTGFSLAWDHRNCRDVDECAGDTHLCQEEQRCVNLLGSYNCLASCRPGFRVTADGSNCEDVDECLEQLDECHYNQLCENTPGGHHCGCPRGYRQQGHSLPCLDINECLQLPTPCVYQCQNLQGSYRCLCPPGQTLLRDGRTCIPLERNRQNITIVSHRSPFGPWLRSRVPRPSSSYHTWVSLRPGSGALNSVGRAWCPPGFIRQDGVCADLDECRVRSLCQHACQNTEGSYYCLCPSGYRLLPSGKNCQDINECEEDGIECGPGQMCFNTRGSFQCVDTPCPTTYRQGSSPGTCFRRCSQDCSASGPSTLQYRLLPLPLGVRAHHDVARLAAFSEAGIPANRTELTVLEPDPRSPFALRQLRAGQGAVYTRRALTRAGLYRLTVRAAAPRHQSVYILLIAVSPYPY”, for which the protein production result was “failed”. With “LYQGFEKEFGRPLSPIELEMIGQWLNTDHYSPELIRLALREAVLNQAYSLKYIDRILLAWERKNITTKEQVAA”, the protein production result is recorded as “failed”. “MEIFELILLMLSAVFLSNVLSRFLPSIAVPLIQVLLGIILAIPLGDHTMDINPELFLLLFMAPILFNDGARTDKKSLWKNRKAILSLSIGLVFVTVGVLGAFIHYLIPAIPFAAAFALAAALAPTDAVAVGALAEKVRVPHKIMHILEGESLINDASGLVSFQFAVLALVTGTFSFMSAGTSFLLLSLGGIALGVVLSLLKIMLMRGLRQLGIENMTSFMLMEILLPFLIFMVAENIGVNGILAVVSGGMVHSFSYKRINPEMAQLNLLSKNTWSVIIFSLNGLVFVLLGTQLPQIMTAIWEDTGIHKSMLFLYIFGITFLLLALRFLWILFFRNYEENPHADLVSRLKNTFLYTVAGVRGTITLVSALSLPFVLGQGNAFPERDLLIFIAAGVIITTLLLANFTLPLFAAKKDVVVADHTTAIALLRDVVGQLQRYKTDENEVEMNNVLKMYNGRIFSLMEHKEVSATEKELRRLTQEWQLENTRRLVFERKIDTGVGLSLMMRLGKRLYVQTRAQKYRARMRYRQLLSHSIRDFRIVPLSFEERRKERAKLQTENNQFVVQKLNELDKNEFNPEVISLYLMNFERALGSGKHKKETDNEELQTTIDLASQIERETIQHYFEKGTITRKEMKVYRDNLLAIEASFQLEF”: the protein production entry is “failed”.

Turning to “MIVRSKPNLISVLISLKGSIAKRIALRSLLVTLLASAIVLIETLHPAYFSKVNATPFTLLGLSLSIFMSFRNNACYDRWYEARKALGTVVTEVRSMIRETQVLEDTRARSAILRDLCGFAHALKARLRREDELSAAETWLSQLPPASTSNLPDSLLRQIARQCSDQAQAGRLSEWRYLLLANQLAAITGAQSTCERIKATPLPFPYTLLLHRTSYMFCILLPFAMAEPLGWLTPIFTAIVSYTFFGLDAIGDELEDPFGHDENDLPLSAIVRNIEREILEALGATELPPALEPVDYVLS”, the protein production entry is “failed”.

As to “MHTISLKRILIYIVLLVTSFALLVGFTVNIVSQVAQYQESLHDQALSYSRIVAGNAASSLVFNDNANEKQRLSSLENTSFIQHVHVYKMDETSNELTFFSSYNKKGLPPIPARFAKLDKLTTPQTNDNYIEVSQPVVLDDEVIGYVYLRGSLEQARLFMWRSIGIASVVFVLTLLLCWLITLRLRKTIVTPLDSVVDVISQVARDKNYSLRLAPSKLVEFDMMAHAFNTMLDRVQQHISRQRRAEEEASQLNTELERQVTQRTQALKESNSELLKTLEQLHQYQGQLVESEKMASLGDMVAGIAHEVNTPIGLSVTASTLLQDKLTIMQEKFDEKRISTSEFERFLSDCDENLQIIYRNLGRAADLVTSFKQVAVDQSSEIDRDIHIPSFMNDVLISVKPRRLDPEKFPIRISCPEGLTVRAKAGPLNQVLINLIVNSMIHAFEGYSSGRVDISFTMVGDDKLEMVYTDNGKGVPSDINRKIFDPFVTTKRGSGGSGLGLHLVYNLVTQVLGGNIHFFSEEKNGVEFIVRFPVTLVSNA”, the protein production result is “failed”. “MDITEKLRLITRNAEEVVTEEELRQLIETKEKPRAYVGYEPSGEIHLGHMMTVQKLMDLQEAGFEIIVLLADIHAYLNEKGTFEEIAEVADYNKKVFIALGLDESRAKFVLGSEYQLSRDYVLDVLKMARITTLNRARRSMDEVSRRKEDPMVSQMIYPLMQALDIAHLGVDLAVGGIDQRKIHMLARENLPRLGYSSPVCLHTPILVGLDGQKMSSSKGNYISVRDPPEEVERKIRKAYCPAGVVEENPILDIAKYHILPRFGKIVVERDAKFGGDVEYASFEELAEDFKSGQLHPLDLKIAVAKYLNMLLEDARKRLGVSV”: the protein production entry is on record as “not failed”. As to “MGKRIAFWFEFASTYSYLSAMRIERAAADLGVTIAWEPFLLGPIFAAQGWTSSPFNLFPAKGRYMWRDMERLCARQGLPLTRPDPFPQNGLPAARLAMVAREMGHIAPFVRAVYAAQFGRGLVISDPQVLAECWAEAGLPPEAMEQAKSPEIKAALFAQGERAAALDLFGAPSFVVGEEVFWGDDRLDQALALAAQS”, the protein production entry is “not failed”.

Consider “MKDRLINFFGSEWFGMAIATLAVAQTFFLASRYMENITLKYTGEIFFYLGIIIFLVIFILWTIRGLTIHDKKWSHWNNLTRLSFIALVPIILFVINHITIELYGINELMARLSLYNYFFSYFLALILGVLLGYRIYTKEINRNEINYAIIIPPLSIGTSIFLATPLIGYYHGTIAESIYFLVLMGLGIFFFLYIFIGSVALSGHVSNKSGSSLPTAMLPVGVSSLIIINLISINSFGAVIDHLPFSIYTVEFVSILLWGFEVWNFLVMMIIVFRKETFGYLSVWAYGFPLGLFATSTIKLEEVTKIVILGNIFIFIWVALVLLWFYGILNTYVFIRRGILGSHPDK”, for which the protein production entry was “failed”. As for “MRFRFGVVVPPAVAGARPELLVVGSRPELGRWEPRGAVRLRPAGTAAGDGALALQEPGLWLGEVELAAEEAAQDGAEPGRVDTFWYKFLKREPGGELSWEGNGPHHDRCCTYNENNLVDGVYCLPIGHWIEATGHTNEMKHTTDFYFNIAGHQAMHYSRILPNIWLGSCPRQVEHVTIKLKHELGITAVMNFQTEWDIVQNSSGCNRYPEPMTPDTMIKLYREEGLAYIWMPTPDMSTEGRVQMLPQAVCLLHALLEKGHIVYVHCNAGVGRSTAAVCGWLQYVMGWNLRKVQYFLMAKRPAVYIDEEALARAQEDFFQKFGKVRSSVCSL”, the protein production entry is “failed”. Next, “MSAGLVQAAYIVAALFFIMSLAGLSKQESARNGNYYGIAGMAIALIATIFSPDAQGFGWIIIAMAIGGAIGIFYAKKVEMTEMPELVAILHSFVGLAAVLVGYNSYLDAPEAATHAEHVIHLVEVFLGVFIGAVTFTGSIVAFGKLRGVISSSPLNLPHKHKMNLAAIVVSTLLMIYFVKADGSMFALIVMTLIAFAFGYHLVASIGGADMPVVVSMLNSYSGWAAAAAGFMLANDLLIVTGALVGSSGAILSYIMCKAMNRSFISVIAGGFGQEIIISSDEEQGEHRETTAEEVAEMLKNSKSVIITPGYGMAVAQAQYPVHEITDALRSQGIEVRFGIHPVAGRLPGHMNVLLAEAKVPYDIVLEMDEINDDFSETDTVLVIGANDTVNPAALEDPNSPIAGMPVLEVWNAKNVIVFKRSMNTGYAGVQNPLFFKENTSMLFGDAKESVEAIFKAL”: “not failed”; “MKKIAFFIFVILFSVGIYLIWHVLLEKALELKLATSANDLLLKLLAILGVFSMLVLFQGIISSYKKRQLKRILQKIDAMNGFEFEEYSKIFFTSKGFEVSITQKSGDYGADLIIEKDGIKWAVQVKRYSHKVSPKAIQEVVSSKAYYACEKACVITNSYFTQAAQKLAQANEVLLIDRDEWVRFLNEKR”: “failed”. Consider “MKTFIWNSNYETGVAKVDDQHQCLVEIINEYSHLLANNTTTETDIELTLNKLIDYTKFHFKDEEQLMYSVGLDTRHITHHEKLHRDILDEISTLLSDQVTDKLSIARYILDLIIHWLVYHILGTDMNMAKQMKAIQGGLSARDAYDFEEKIKDKSTEPLLEALNALFIQISERNKDLMELNKTLEAKVISRTQQLSERNKELAILSLTDPLTNMANRRHAMQQLTLLWEESVNNNLPLSCLMIDVDYFKQINDTHGHDIGDVVLIELARVFQHAIRTDDIACRLGGDEFFIICPATELEGGLLIAELINEQVESLSIDISDSQLSLSTSIGVATKTAQMTSIEDLMKAADDGVYSAKSNGRGCTKSIQ”, for which the protein production result is listed as “failed”. For the sequence “GMIDGHHHLTQSFAKSLAYGEPSEIFKRIWVPLESNLNEQFVYLCTKLAALESLRGGFTTVCDAGTRSEIGMQLMVRALEETGLRCVLSLICNDGRAHSTLELRQNILENAQIFIKSYKQHKNVHPSLAISIPEVASDDMLYEVSKLCANSNIIFQVHVNEHLASVERSIIQQGMRPLEHLAKVGALGPQTLIAHATMLTPSELLLLQRTDTAVSYNPVASQWKGNAVASAHLMHELNIRFALGTDATRADGFRLLDAAEATQKLIFGIPTGDCSTGGGWMWLDHATTAGAEAVGLSQL”, the protein production entry is listed as “failed”. In the case of “MIDSQFQFTVLTPTYNRAVTLHRVFQSLQRQTCRDFEWVVVDDGSTDNTHEVVRAWQAQADFPIRYVWQHNQHKKTAFNRGVREARGMLVVGLDSDDEIPPDALAILKDAWEGIPADRRETYVAVTGLCARPDGSIVGDRFPQDVFDSTAVDMYFRYRVQGEKFGAMRADVLRRFPFPEDVAGFVPESLVWWAISRAGYLSRFINRVVRVYHDTPGGLSQGGVSLSSNIQGLYLLAWDMLQHHLDWFRYRPREFIMAAARYTRFRLHLDNSGLPTAVQAYRLTQPSARLLVLLMWPLGYLLYRRDRRRGVA” it was “failed”; in that of “MTRKSFPFFLLGLILTVGIDQAVKYWVMHNIPLGTETPLLPFLSLYHVRNSGIAFSFFSSFSHWGLIFLTLIILIFLLWLWKNTQYNKSLTRFGFTLIIGGAIGNLIDRICFYYVIDYILFYINDVFYFAVFNLADTFITLGVIAIIIEELLSWIKRKSTFSE”, “failed”; in that of “MQFIYSIIGILLVLGIVYAISFNRKSVSLSLIGKALIVQFIIALILVRIPLGQQVVSVVSTGVTKVINCGQAGLNFVFGSLADSGAKTGFIFAIQTLGNIVFLSALVSLLYYVGILGFVVKWIGKGVGKIMKSSEVESFVAVANMFLGQTDSPILVSKYLGRMTDSEIMVVLVSGMGSMSVSILGGYIALGIPMEYLLIASTMVPIGSILIAKILLPQTEPVQKIDDIKMDNKGNNANVIDAIAEGASTGAQMAFSIGASLIAFVGLVSLINMMLSGLGIRLEQIFSYVFAPFGFLMGFDHKNILLEGNLLGSKLILNEFVSFQQLGDLIKSLDYRTALVATISLCGFANLSSLGICVSGIAVLCPEKRGTLARLVFRAMIGGIAVSMLSAFIVGIVTLF”, “failed”.

Take “YWGPLDVGEAKSLPGMEDPKLVYIPSIAPSNMVLYRGDKYSELDGKILVGALKLTHINVVGINDGKLTESQRLLEKLGERIRDITISPDGYIYFSTDSGKIFRLTEQ”: the protein production entry is “failed”.
